Assay results taken from patent publication US20190367957A1.
Read-outs that look alike come from different tables or passages of the source.

T1: cytochrome P-450aluC09 (P450 AluC09) from Amycolatopsis lurida NRRL 2430 (Amycolatopsis lurida NRRL 2430)
T1 sequence: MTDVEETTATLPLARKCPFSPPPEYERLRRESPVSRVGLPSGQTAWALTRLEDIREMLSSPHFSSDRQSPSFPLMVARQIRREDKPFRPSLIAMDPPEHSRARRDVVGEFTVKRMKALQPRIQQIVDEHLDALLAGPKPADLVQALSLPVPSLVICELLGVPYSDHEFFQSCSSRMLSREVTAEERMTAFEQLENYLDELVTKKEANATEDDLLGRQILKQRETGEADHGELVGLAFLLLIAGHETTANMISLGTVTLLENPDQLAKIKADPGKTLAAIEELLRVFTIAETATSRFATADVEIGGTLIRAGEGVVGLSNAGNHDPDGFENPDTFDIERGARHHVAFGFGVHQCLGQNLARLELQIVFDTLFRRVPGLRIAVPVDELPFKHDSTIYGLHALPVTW


Columns and labels:
[1] = target: T1, cytochrome P-450aluC09 (P450 AluC09) from Amycolatopsis lurida NRRL 2430 (Amycolatopsis lurida NRRL 2430); assay: cell-based or functional assay
[2] = target: T1, cytochrome P-450aluC09 (P450 AluC09) from Amycolatopsis lurida NRRL 2430 (Amycolatopsis lurida NRRL 2430); assay: cell-based or functional assay; remark: listed apart in the source

| Binder | % yield of parent-derived products, 4'-HO-diclofenac 310 m/z (whole cell biocatalysis) [1] [%] | % yield of parent-derived products, 5-HO-diclofenac 310 m/z (whole cell biocatalysis) [1] [%] | % yield of parent-derived products, HO-bosentan 568 m/z (whole cell biocatalysis) [1] [%] | % yield of parent-derived products, HO-bosentan 568 m/z (whole cell biocatalysis) [2] [%] |
| --- | --- | --- | --- | --- |
| ferredoxin Fd1 from Streptomyces griseus 11796 (protein) TMRVSADRTVCVGAGLCALTAPGVFDQDDDGIVTVLTAEPAADDDRRTAREAGHLCPSGAVRVVEDTE | 11.5 | 4.2 | 6.3 | – |
| ferredoxin CamB from Pseudomonas putida ATCC 17453 (protein) SKVVYVSHDGTRRELDVADGVSLMQAAVSNGIYDIVGDCGGSASCATCHVYVNEAFTDKVPAANEREIGMLECVTAELKPNSRLCCQIIMTPELDGIVVDVPDRQW | – | – | – | 21.2 |
| ferredoxin AluF03 from Amycolatopsis lurida NRRL 2430 (protein) MKIIADTGKCVGAGQCVLTDPDLFDQSEDDGTVLVLNAEPEGEEAEENARTAVHICPGQALSLA | 60.3 | 23.8 | 52.6 | 27.4 |
